These results are taken from patent US9265845B2, “Imaging methods using engineered integrin binding peptides” (The Board of Trustees of the Leland Stanford Junior …, priority 2006, dated 2016).

Series [1] can be described thus: MicroPET imaging and biodistribution of radiolabeled peptides in U87MG tumor-bearing mice. The following applies: female, athymic nude (nu/nu), mouse, in vivo, iv, total radioactivity; for tissue uptake at 0.5 h: 0.5 h post injection; for tissue uptake at 2 h: 2 h post injection; for tissue uptake at 4 h: 4 h post injection; for tissue uptake at 25 h: 25 h post injection. Type of series: in vivo, mouse. Here is the method:
(§1) MicroPET imaging of tumor-bearing mice is performed on a microPET R4 rodent model scanner (Concorde Microsystems Inc, Knoxyille, Tenn.). U87MG tumor bearing mice are injected with PET imaging agent via the tail vein. At various times post injection, the mice are anesthetized with 2% isoflurane, and 10 min static scans are obtained. Images are reconstructed by a two-dimensional ordered expectation maximum subset algorithm as previously described. Regions of interest (ROI) are drawn over the tumor on decay corrected whole body images and ROI derived % injected dose per gram of tissue is determined. Statistical analysis is performed using the student's t-test for unpaired data. A 95% confidence level is used to determine statistical significance.
(§2) Female athymic mice bearing U87MG tumors were injected with 80-150 μCi of ^64Cu-DOTA-knottin 2.5D or 7-9 μCi of [^18F]-FB-E[knottin 2.5D]. Static images were taken at various timepoints post injection using a microPET R4 rodent model scanner (Concorde Microsystems Inc, Knoxyille, Tenn.). […] Uptake was also observed in the kidney as both probes cleared through the bladder.
(§3) Mice are sacrificed by exanguinations at various time points postinjection. Blood, tumor and the major organs and tissues are collected, wet-weighed and measured in a γ-counter. The % injected dose per gram is determined for each sample. For each mouse, radioactivity of the tissue samples is calibrated against a known aliquot of the injectate. Values are reported as the mean±standard deviation.
(§4) The following Table 10 quantifies the ^64Cu-DOTA knottin uptake by direct tissue sampling of the mice up to 24 hours post injection and is reported in % ID (percent injected dose)/gram. Similar results were obtained with [^18F]-FB-E[knottin 2.5D].
(§5) A U87MG glioblastoma xenograft mouse model was used. U87MG cells were maintained at 37° C. in a humidified atmosphere containing 5% CO2 in Dulbecco's modified eagle medium, 10% heat-inactivated fetal bovine serum, and penicillin-streptomycin (all from Invitrogen). Animal procedures were carried out according to a protocol by Stanford University Administrative Panels on Laboratory Animal Care. Female athymic nude mice (nu/nu), obtained at 4-6 weeks of age (Charles River Laboratories, Inc.), were injected subcutaneously in the right or left shoulder with 2×10^7 U87MG glioblastoma cells suspended in 100 μL of PBS. Mice were used for in vivo imaging studies when their tumors reached approximately 8 to 10 millimeters in diameter.
(§6) U87MG tumor-bearing mice (n=3 or more for each probe) were injected with ˜100 μCi of ^64Cu-DOTA-conjugated peptides via the tail vein and imaged with a microPET R4 rodent model scanner (Siemens Medical) using 3 or 5 min static scans. […] Images were reconstructed by a two dimensional ordered expectation maximum subset algorithm and calibrated as previously described (Wu, Y, Zhang, X, Xiong, Z, et al. microPET imaging of glioma integrin {alpha}v{beta}3 expression using (64)Cu-labeled tetrameric RGD peptide. J Nucl Med 2005; 46:1707-18). ROIs were drawn over the tumor on decay-corrected whole body images using ASIPro VM software (Siemens Medical). The mean counts per pixel per minute were obtained from the ROI and converted to counts per milliliter per minute with a calibration constant. ROIs were converted to counts/g/min, and % ID/g values were determined assuming a tissue density of 1 g/mL. No attenuation correction was performed.

The subject of the next series is U87MG tumor. The series is described as above. As to conditions: radiolabeled peptides, U87MG tumor-bearing mice. It is filed as in vivo, mouse. The protocol:
as §1, §2, §3, §4, §5, §6

The target of another series is αvβ3 integrin (Homo sapiens, UniProt P05106+P06756). The series is described as follows: Yeast-displayed peptide binding to soluble αvβ3 integrin, flow cytometry. The following applies: yeast-displayed peptides. Here is the method: The yeast display construct shown in FIG. 1A has the general orientation: Aga2-HA-engineered knottin—c-myc epitope, with the c-myc epitope at the carboxy terminus of the peptide. […] Bound integrin is detected with an anti-integrin antibody, labeled with FITC.
Sequence of αvβ3 integrin (P06756 31-889 limits assumed): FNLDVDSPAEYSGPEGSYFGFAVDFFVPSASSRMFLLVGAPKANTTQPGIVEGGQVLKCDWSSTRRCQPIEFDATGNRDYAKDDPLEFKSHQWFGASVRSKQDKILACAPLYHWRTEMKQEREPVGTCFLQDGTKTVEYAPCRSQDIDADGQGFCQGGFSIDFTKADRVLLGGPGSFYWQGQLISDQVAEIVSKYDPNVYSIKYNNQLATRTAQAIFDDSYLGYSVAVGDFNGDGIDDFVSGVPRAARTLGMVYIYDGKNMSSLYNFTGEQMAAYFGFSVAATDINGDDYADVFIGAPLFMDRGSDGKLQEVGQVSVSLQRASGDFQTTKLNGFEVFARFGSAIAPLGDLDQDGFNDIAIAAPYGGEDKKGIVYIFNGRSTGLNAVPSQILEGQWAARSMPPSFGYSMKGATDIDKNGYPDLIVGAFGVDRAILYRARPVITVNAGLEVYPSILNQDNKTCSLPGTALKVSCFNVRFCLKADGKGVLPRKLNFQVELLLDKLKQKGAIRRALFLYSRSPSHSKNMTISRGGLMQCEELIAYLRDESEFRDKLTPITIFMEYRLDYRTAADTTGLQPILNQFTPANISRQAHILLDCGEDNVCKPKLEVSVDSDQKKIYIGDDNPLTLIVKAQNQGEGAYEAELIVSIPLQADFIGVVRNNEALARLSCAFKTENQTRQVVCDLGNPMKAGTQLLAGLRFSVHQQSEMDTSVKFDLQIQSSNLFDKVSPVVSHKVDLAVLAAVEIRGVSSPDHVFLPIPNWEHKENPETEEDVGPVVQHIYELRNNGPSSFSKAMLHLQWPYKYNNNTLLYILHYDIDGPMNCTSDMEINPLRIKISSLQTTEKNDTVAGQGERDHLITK
Sequence of αvβ3 integrin (P06756 891-1048 partner limits assumed): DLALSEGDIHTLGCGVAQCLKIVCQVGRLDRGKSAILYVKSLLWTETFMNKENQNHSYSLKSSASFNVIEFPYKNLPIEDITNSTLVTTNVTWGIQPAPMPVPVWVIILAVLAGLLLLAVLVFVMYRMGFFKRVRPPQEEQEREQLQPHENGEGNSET
Sequence of αvβ3 integrin (P05106 27-788): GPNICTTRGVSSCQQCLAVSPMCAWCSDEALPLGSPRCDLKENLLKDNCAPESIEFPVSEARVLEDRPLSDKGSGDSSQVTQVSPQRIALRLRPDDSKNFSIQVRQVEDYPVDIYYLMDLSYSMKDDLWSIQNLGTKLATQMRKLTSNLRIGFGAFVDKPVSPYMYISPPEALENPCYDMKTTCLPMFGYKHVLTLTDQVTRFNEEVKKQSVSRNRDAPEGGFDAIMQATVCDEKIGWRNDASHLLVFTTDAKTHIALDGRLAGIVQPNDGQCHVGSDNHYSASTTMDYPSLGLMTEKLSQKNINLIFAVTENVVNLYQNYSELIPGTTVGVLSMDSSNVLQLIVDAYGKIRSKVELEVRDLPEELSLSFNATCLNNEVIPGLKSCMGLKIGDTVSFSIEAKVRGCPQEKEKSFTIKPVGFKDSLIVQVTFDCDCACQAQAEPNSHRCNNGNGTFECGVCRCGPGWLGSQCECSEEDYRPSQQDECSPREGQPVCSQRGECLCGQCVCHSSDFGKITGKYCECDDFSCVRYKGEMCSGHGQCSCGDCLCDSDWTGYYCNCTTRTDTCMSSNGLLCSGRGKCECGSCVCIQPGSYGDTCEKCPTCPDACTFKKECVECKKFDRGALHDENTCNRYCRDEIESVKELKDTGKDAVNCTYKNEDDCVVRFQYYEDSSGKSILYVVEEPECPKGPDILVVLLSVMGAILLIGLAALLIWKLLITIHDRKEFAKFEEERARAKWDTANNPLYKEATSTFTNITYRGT
Below is a typical protocol to label a yeast library samples for sorting by flow cytometry (FACS): • 1. Want 2×10^6 cells, OD600 of […] • 2. Add 1 mL PBS/BSA (phosphate buffered saline containing 1 mg/mL bovine serum albumin) to wash cells • 3. Spin down cells 3 min at 8000 RPM • 4. Remove supernatant using vacuum • 5. Re-suspend in 40 μL PBS/BSA containing proper amount of integrin (100 nM [2.5 μL of stock αvβ3]; no anti-cmyc at this point) • 6. Incubate for 1.5 h at r.t (w/tumbling) • 7. Add 1:250 dilution of (chick anti-cmyc) to labeling solution • 8. […] Incubate 1 h at 4° C. (w/tumbling) • 10. Keep on ice after this step. • 11. Spin down cells 3 min at 8000 RPM, 4° C. and vacuum supernatant • 12. Repeat wash steps 2-4 • 13. Re-suspend in 40 μL PBS/BSA containing proper amount of secondary labels (secondary labeling is simultaneous) • i. Anti-integrin Ab (FITC conj): 1:25 dilution+Anti-chick (Alexa 555): 1:100 dilution • ii. Positive control: Anti-chick (Alexa 555): 1:100 dilution (for FACS compensation) • iii. Positive control: Anti-chick (Alexa 488): 1:100 dilution (for FACS compensation) • 14. Incubate on ice 30 min and keep in dark (lid on ice bucket) • 15. Spin down cells at 3 min at 8000 RPM, 4° C. and vacuum supernatant • 16. Repeat steps 2-4: Add 1 mL PBS/BSA, pellet cells, vacuum supernatant • 17. Leave pelleted cells on ice until use. Fluorescent Cell Sorting
Commercially available flow cytometers can measure fluorescence emissions at the single-cell level at four or more wavelengths, at a rate of approximately 50,000 cells per second (Ashcroft and Lopez, 2000). Typical flow cytometry data are shown in FIG. 4-7, in which yeast have been labeled with two different color fluorescent probes to measure protein expression levels and bound soluble ligand (in this case integrin receptor). A ‘diagonal’ population of cells results due to variation in protein expression levels on a per cell basis: cells that express more protein will bind more ligand. The equilibrium binding constant (Kd) can be determined by titration of soluble ligand, and the dissociation rate constant (koff) can be measured through competition binding of unlabeled ligand. With yeast, a monodispersity of tethered proteins exists over the cell surface, and soluble ligand are used for binding and testing, such that avidity effects are not observed, unlike other display methods using immobilized ligands. To date, the properties of most proteins expressed on the yeast cell surface mimic what is seen in solution in terms of stability and binding affinity (Bader et al., 2000; Feldhaus et al., 2003; Holler et al., 2000; VanAntwerp and Wittrup, 2000). See, also, Weaver-Feldhaus et al., “Directed evolution for the development of conformation-specific affinity reagents using yeast display,” Protein Engineering Design and Selection Sep. 26, 2005 18(11):527-536.
Cell sorting was carried out on a FACSVantage (BD Biosciences) multiparameter laser flow cytometer and cell sorter. Before sorting, fluorescent staining was carried out as described above, so that analysis of integrin binding and c-myc expression levels were detected, as described above. […]
(A flow cytometer gives signals particle by particle.)

Setting [2] is: direct tissue sampling, read-out: Kidney uptake, mean.
Where [3] appears, read: direct tissue sampling, read-out: Liver uptake, mean.
[4] abbreviates: direct tissue sampling, read-out: Muscle uptake, mean.
Setting [5] is: direct tissue sampling, read-out: Tumor uptake, mean.

Read-outs that look alike come from different tables or passages of the source. Positions of bridges follow the written chain, without caps; N, C: chain ends. Residues, ends and D or L forms follow the SMILES beside them. *: point of attachment. DOTA = O=C(O)CN1CCN(CC(=O)O)CCN(CC(=O)*)CCN(CC(=O)O)CC1

Turning to `CC(C)[C@@H]1NC(=O)[C@@H]2CSSC[C@H](NC(=O)CNC(=O)CN3CCN(CC(=O)O)CCN(CC(=O)O)CCN(CC(=O)O)CC3)C(=O)N3CCC[C@H]3C(=O)N[C@@H](CCC(N)=O)C(=O)NCC(=O)N[C@@H](CCCNC(=N)N)C(=O)NCC(=O)N[C@@H](CC(=O)O)C(=O)N[C@@H](Cc3c[nH]c4ccccc34)C(=O)N[C@@H](C)C(=O)N3CCC[C@H]3C(=O)N[C@@H]([C@@H](C)O)C(=O)N[C@@H](CO)C(=O)N[C@H]3CSSC[C@H](NC1=O)C(=O)NCC(=O)N1CCC[C@H]1C(=O)N[C@@H](CC(N)=O)C(=O)NCC(=O)N[C@@H](Cc1ccccc1)C(=O)N[C@H](C(=O)NCC(=O)O)CSSC[C@H](NC(=O)[C@H](CC(=O)O)NC(=O)[C@H](CO)NC(=O)[C@H](CC(=O)O)NC(=O)[C@H](CCC(N)=O)NC(=O)[C@H](CO)NC3=O)C(=O)N[C@@H](CCCNC(=N)N)C(=O)N[C@@H](C)C(=O)NCC(=O)N2` [^64Cu-DOTA-knottin 2.5D, metal not drawn] ({DOTA}-GCPQGRGDWAPTSCSQDSDCRAGCVCGPNGFCG-OH; disulfide 2-24, 14-26, 20-32; C-terminus assumed), the tissue uptake at 0.5 h in series [1] (setting [2]) was 7.26 %ID/g; in series [1] (setting [3]), 1.39 %ID/g; in series [1] (setting [4]) it was 0.45 %ID/g; in series [1] (setting [5]), 4.94 %ID/g. Also, the tissue uptake at 1 h in series [1] (1 h post injection, direct tissue sampling, read-out: Kidney uptake, mean) amounted to 4.06 %ID/g; in series [1] (1 h post injection, direct tissue sampling, read-out: Liver uptake, mean) it was 1.29 %ID/g; in series [1] (1 h post injection, direct tissue sampling, read-out: Muscle uptake, mean), 0.28 %ID/g; in series [1] (1 h post injection, direct tissue sampling, read-out: Tumor uptake, mean), 4.47 %ID/g. In addition, the tissue uptake at 2 h in series [1] (setting [2]) is 3.45 %ID/g; in series [1] (setting [3]), 0.98 %ID/g; in series [1] (setting [4]), 0.07 %ID/g; in series [1] (setting [5]), 2.89 %ID/g. The tissue uptake at 4 h in series [1] (setting [2]) was 3.26 %ID/g; in series [1] (setting [3]), 0.92 %ID/g; in series [1] (setting [4]), 0.06 %ID/g; in series [1] (setting [5]), 2.24 %ID/g. The tissue uptake at 25 h is 1.75 %ID/g in series [1] (setting [2]), 0.53 %ID/g in series [1] (setting [3]), 0.03 %ID/g in series [1] (setting [4]) and 1.31 %ID/g in series [1] (setting [5]). Besides, the “PET tumor targeting / imaging signal, in words” value in the series on U87MG tumor was “clearly targeted the U87MG tumor”.
For `N=C(N)NCCC[C@@H]1NC(=O)[C@H](CCCCN)NC(=O)[C@@H](Cc2ccc(O)cc2)NC(=O)[C@H](CC(=O)O)NC(=O)CNC1=O` [c(RGDyK), reference compound], the tissue uptake at 1 h in series [1] (Tumor uptake) is 2.32 ± 0.55 %ID/g; in series [1] (non-specific liver uptake), about 4 %ID/g.
With “CVRLHESCLGQQVPCCDPCATCYCTGRGDSPASCYCRKLGTAMNPCSRT [RGD-AgRP#3]”, the “integrin binding compared in words” value with αvβ3 integrin is “RGD-AgRP #1<#2, <#3”.
The same measure, in the same setting: next, “GCVRLHESCLGQQVPCCDPCATCYCRGDCYCRKLGTAMNPCSRT [RGD-AgRP#1]”: “RGD-AgRP #1<#2, <#3”.
In the case of “GCVRLHESCLGQQVPCCDPCATCYCTGRGDSCYCRKLGTAMNPCSRT [RGD-AgRP#2]”, the “integrin binding compared in words” value with αvβ3 integrin is recorded as “RGD-AgRP #1<#2, <#3”.
As to “RGD-EETI#2: EETI-II scaffold with native fibronectin RGD loop, RGD at insert positions 3-5, SEQ ID NO: 20 (GCTGRGDSPASSKCKQDSDCLAGCVCGPNGFCG)”, the “integrin binding compared in words” value in the series with αvβ3 integrin was “approximately half the affinity of RGD-EETI#3”.
